Measurements as given in patent US20020022718A1, “Genes identified as required for proliferation of E. coli” (priority 1999, published 2002).

B1: EcXA132: antisense clone insert to E. coli narV (nucleic acid, listed as Escherichia coli)
antisense: GGAGAGCGAAGGGCTATCCGGCCAGGGTGAAATTATCGCCGCGAACGCACAATTTGATATCGACGAGTAAAGTACTCAAACGGCGCGCTCCACACATGCACCAGTCGGGTGAACGGGAAGAGCAGGAAGATGGTCATTCCCAACACCAGATGCAGGCGGAAGACGAACGCTACGCCGTTGAGCATCTCTGACGATCCACCACGGAAAGTGA
B2: EcXA139: antisense clone insert to E. coli b0874 (nucleic acid, listed as Escherichia coli)
antisense: AGGTTACTGGCGAGGTTATCGAGAAACGCCAGACTGATACCCATAAAAAAGAGAATAAGGTAAACCATCCAGCTTAATAGCTGATTAATAACTTTTAACGCAGCTTGTTGGCGAAGCGGAATGAGGTAACCCACAATCAGGGGAACCAGAATGATTAACAGCCCAGAAAACATGAAAACCCAGTCCTTGCAAAGATGAAGTCGAAATGCGCGATGACACACTACTGAAAGCGGAAGGACGAGTAAAGTTGCAATTAAAAGGAAATGTTATGCATAAGGAGCAGTAGAGTATTCGTTTTCATTTAAAGATATTCTTGCGCTTTAATTACAAACTGCACCGATGTTGGTGGCGTCAAAATCGCCGAGGCGTTCCCTGAAGGCCGGGGCAGCCCACATGGATGTGGGCTGAGGGCGCGTTTTACAGGG
B3: EcXA120: antisense clone insert to E. coli b1509 (nucleic acid, listed as Escherichia coli)
antisense: TCCGCGATCGCGGATAAAAAGGAGGATTTAAATAAGGCGTTGATGCGCCGTTTGAAGTCGGCAATATTAAGCCGCATGCCATCTCGACATGCGGCTTATACGGTTTACCAGCTATATTTCACTCCCAGCATGCCCTGAGTATCGCTATAGCCTTTATCACCTAGTTGCACACCGACATTCCCCCACAGGCTAAGGTTGTTATTTACTTTCGCCTCAACCCCGGTACGTACTTCACCGAGATTACGCGCACCTTCACGGCCTACGGTTTGACCATTCATCTTCACGGCGTAGACTTTGCTATTGTTGATCCAGTTCGCTTCAATGTAAGGCTGGAACTCACGCTGTTTACCATCGTCACGCTGGTGATGGCTGTTCAGGTAGGTTTTCACCCCAAG
B4: EcXA128: antisense clone insert to E. coli nagE (nucleic acid, listed as Escherichia coli)
antisense: CGCTGGAAAAAACCTAAAATATTCATCTTATTCCCCCTACGAGAACCCTATTTGGCTCGTTTCAAGCCGTATTTTTATTTTGCTGCAAATTGTACTGCCGATGTTCTGTAATCAGATTGTTAGATCATCTGCTACAGAGTGTGTGAAAATTTAATTCGTATCGCAAATTAAACGCGTGTCTTTTGTGAGTTTTGTCACCAAATATCGTTATTATCACTCCCTTTTACTGGCTAAACCAGAAAACTTATTT
B5: EcXA123: antisense clone insert to E. coli yheL (nucleic acid, listed as Escherichia coli)
antisense: CTGGTTTTAGCTTTTGCTTCGTAAACACGTAATAAAACGTCCTCACACAATATGAGGACGCCGAATTTTAGGGCGATGCCGAAAAGGTGTCAAGAAATATACAACGATCCCGCCATCACCAGGCCATCTGGCTGGGG
B6: EcXA126: antisense clone insert to E. coli yicC (nucleic acid, listed as Escherichia coli)
antisense: CGATGTTCTGAATCTGCTCGCGCATCTGCTCAATCAACACTTTCAGCTCGATGGCGGAGTTTGTCACTTCGGCATTGATAGACTTCGACGCAAGAGTGTTCGACTCGCGGTTGA
B7: EcXA121: antisense clone insert to E. coli yjfQ (nucleic acid, listed as Escherichia coli)
antisense: TGATCGATCAGGTAATTTGCCAGCGGTAGATAATTAGTGATGATTTGCACTGGCTTGCCACACATTTCCCGCCCAAGCAGAAACGCGGTGGAGCCGCAGTTGATGACTACGCTTTCGCCCGGATTAACCAGCTGCGAGGCCGCTTTAGCGATACGTACTTTTTCATCGTGATTCTGCGCCTGATGCAGATTCATCGGCGTCCAGCGCGGGCGCTGTTGGGTAATAGCTTCTGCGCCATTGCGCACTTTTTTCAGTTTGCCGCTTTCGTCAAGTTTATTGA
B8: EcXA129: antisense clone insert to E. coli yadC, yadK (nucleic acid, listed as Escherichia coli)
antisense: GTATTACAACAAGAATACAGTGCTAAAAAAAGAATGTACCTGAAGATAGTCTTCATTTTTACTCCAATGTTTCTTTATTGTTATGGTTTGCGCTGTTTTTGTTTGTTATTCGTAGTAAATATCCACTAACACATGGCTCATAAGTTGACCAGATGTAACACTCAATGCAGGATCGATTTTTTGCATTCGGGTGCTAAATTTCCAGGATGAACCATTCATGTCATCCGACATTACTGG
B9: EcXA125: antisense clone insert to E. coli yiiL (nucleic acid, listed as Escherichia coli)
antisense: TGTCGGTAAACAATGACAATTTGAGACAGAGTGAAAGGTCAGATTTGCGGAGTAATGCACATAATGGTTATTTAAATAAACCACATGAATCATTAATGGGTTATTCATTATTTTTGTGATTTACTCACAATGTATCAGGGAAATATAACTTACCGGGAGATGTAATATGTTTAATTTTTCAAATCGAAATTTAAAATATTGTGCCGGAGGCATCTCTGGCACATTGGGCAATTACGGCA
B10: EcXA137: antisense clone insert to E. coli proA, thrW (nucleic acid, listed as Escherichia coli)
antisense: CTTTTTACGGACAAACAATCATGCAACCAGAAGTTGAAGTATTAACCGATCATAATGAGCTAATTTGTTCGAGCTTTATTGAACACATTGCCAACACATTAAATTTAGGAGTGGTGTACAACTAAACCTGCAGCCAAGGATGTATAGTGAGCGAAGCCCTATCAGGCCTTTTTGGTCAGTAGATAAGATTGATCTTCGTTGATAGAATTTACTTACACCAGCTGTTACATTAAGATAATTTTTTGGTGGGAGAATGATAAGATCTTACGTAACAATTTGATTTTAATGGTGCCGATAATAGGAGTCGAACCTACGACCTTCGCATTACGAATGCGCTGCTCTACCAACTGAGCTATATCGGCCCTGAAAGGACATGTTCACGAACGTGAATCACGGTGGACAAGGTTAAAACTAACCGGGCGATGCGTCAATGGCCTTGTGAATCAAATGGCTACTTTTGCATCACCCGGTTTTATTTACGCACGAATGGTGTAATCACCAATGCCGATCCACTTGTAAGTGGTCAAGTGCTTNCAGCCCCATTGGGCCACGCGCCGTGGAGTTTTTGTGTGCTTACCGGCACTTTCGCACCCAGACCAAACTGGCCGCCGTCGGTAAAACGCGTAGAGGCGTTACGTAAACAGCGGACGAATCCACTTCGTNACAAAACGCTTGGCGTTGGCATATCGCGGGTCANGATCGCAATCGGAGTGTTGTGTGCCCGGGTTN
modifications: misc_feature (1)...(729): n = A,T,C or G
notes: antisense clone insert to E. coli proA, thrW
B11: EcXA130: antisense clone insert to E. coli atpE, atpB (nucleic acid, listed as Escherichia coli)
antisense: CATCATCACAGCGGCAGCCATGTACAGCAGATCCATATTCAGGTTTTCCATGACAGTCTCCAGTTTGTTTCAGTTAAAACGTAGTAGTGTTGGTAAATTAATGTTCTTCAGACGCCATCGACAGATAGACGATCGTCAGAACCATGAAGATGAAGGCTTGCAGCGTAATGATCAGGATGTGGAAAATGGCCCACGGCACATTCAGGATCCACTGTGACCACCACGGCAACAGACCAG
B12: EcXA138: antisense clone insert to E. coli yhaC (nucleic acid, listed as Escherichia coli)
antisense: AGCCATTGTCCGGAGAATTTTCGTCTTTCTCGAGGGTATTATCTGAAAGTAACTCTTCTGAGCTAGAGTCTTCTATGTTTAAATCCATAGTATAATTAATTTGGGGGACGACCAGATAAGCATTTTCTTTGGTATTTTCATAATCTTCAATGATTATATCCGATGTAATCATATATTTTTTCTGATGAGAATTCTTTCATCTCTGTTAATTTAATTCTGTTCAAGCAATTGATGATTTTCGATGAGCTTTTATATATTTCTTTTGTTAATTCATTTTCTAATTTATCTGTAAGAGTTGCCCTTGG

Test system: Klebsiella pneumoniae
Test: Growth inhibition by induced E. coli antisense RNA in Klebsiella pneumoniae
Type: cell-based
Parameters: key: +: a positive in Table V below means that at least 10 fold more cells were required to observe a colony on the induced plate than on the non-induced plate; −: If there was no effect of antisense RNA expression in a microorganism, the clone is minus in Table V below
Settings: antisense RNA expression induced with IPTG, serial dilution plating
Experimental: To study the effects of transcriptional induction in liquid medium, growth curves were carried out by back diluting cultures 1:200 into fresh media with or without 1 mM IPTG and measuring the OD450 every 30 minutes (min). To study the effects of transcriptional induction on solid medium, 10^2, 10^3, 10^4, 10^5, 10^6, 10^7 and 10^8 fold dilutions of overnight cultures were prepared. Aliquots of from 0.5 to 3 μl of these dilutions were spotted on selective agar plates with or without 1 mM IPTG. After overnight incubation, the plates were compared to assess the sensitivity of the clones to IPTG.
Molecule No. EcXA190, encoding a portion of the b3052 gene of Escherichia coli, was either transformed directly into Enterobacter cloacae, Salmonella typhimurium and/or Klebsiella pneumoniae or subcloned into an expression vector functional in these species and the subclones transformed into these organisms. Suitable expression vectors are well known in the art. These expression vectors were introduced into Enterobacter cloacae, Salmonella typhimurium and/or Klebsiella pneumoniae cells that were then assayed for growth inhibition according to the method of Example 1. After growth in liquid culture, cells were plated at various serial dilutions and a score determined by calculating the log difference in growth for INDUCED vs. UNINDUCED antisense RNA expression as determined by the maximum 10 fold dilution at which a colony was observed. If there was no effect of antisense RNA expression in one organism, the clone is given a score of zero “0” in that organism. In contrast, a score of “8” means that 10^8 times more cells were required to observe a colony formed on the induced state than in the non-induced state under the conditions used and in that organism.
In addition, the above methods were validated using other antisense nucleic acids which inhibit the growth of E. coli which were identified using methods similar to those described above. Expression vectors which inhibited growth of E. coli upon induction of antisense RNA expression with IPTG were transformed directly into Enterobacter cloacae, Klebsiella pneumonia or Salmonella typhimurium. The transformed cells were then assayed for growth inhibition according to the method of Example 1. After growth in liquid culture, cells were plated at various serial dilutions and a score determined by calculating the log difference in growth for INDUCED vs. UNINDUCED antisense RNA expression as determined by the maximum 10 fold dilution at which a colony was observed. If there was no effect of antisense RNA expression in a microorganism, the clone is minus in Table V below. In contrast, a positive in Table V below means that at least 10 fold more cells were required to observe a colony on the induced plate than on the non-induced plate under the conditions used and in that microorganism.

Molecule	Sensitivity of K. pneumoniae to antisense nucleic acid (growth inhibition, induced vs. uninduced)
B1	−
B2	−
B3	−
B4	−
B5	−
B6	−
B7	−
B8	−
B9	−
B10	−
B11	−
B12	−
